According to article PMC5030094, “Human DNA2 possesses a cryptic DNA unwinding activity that functionally integrates with BLM or WRN helicases”:

Biological target: T1, hDNA2 D277A (nuclease-deficient) (Homo sapiens, UniProt P51530 1-1060, D277A)
T1 sequence: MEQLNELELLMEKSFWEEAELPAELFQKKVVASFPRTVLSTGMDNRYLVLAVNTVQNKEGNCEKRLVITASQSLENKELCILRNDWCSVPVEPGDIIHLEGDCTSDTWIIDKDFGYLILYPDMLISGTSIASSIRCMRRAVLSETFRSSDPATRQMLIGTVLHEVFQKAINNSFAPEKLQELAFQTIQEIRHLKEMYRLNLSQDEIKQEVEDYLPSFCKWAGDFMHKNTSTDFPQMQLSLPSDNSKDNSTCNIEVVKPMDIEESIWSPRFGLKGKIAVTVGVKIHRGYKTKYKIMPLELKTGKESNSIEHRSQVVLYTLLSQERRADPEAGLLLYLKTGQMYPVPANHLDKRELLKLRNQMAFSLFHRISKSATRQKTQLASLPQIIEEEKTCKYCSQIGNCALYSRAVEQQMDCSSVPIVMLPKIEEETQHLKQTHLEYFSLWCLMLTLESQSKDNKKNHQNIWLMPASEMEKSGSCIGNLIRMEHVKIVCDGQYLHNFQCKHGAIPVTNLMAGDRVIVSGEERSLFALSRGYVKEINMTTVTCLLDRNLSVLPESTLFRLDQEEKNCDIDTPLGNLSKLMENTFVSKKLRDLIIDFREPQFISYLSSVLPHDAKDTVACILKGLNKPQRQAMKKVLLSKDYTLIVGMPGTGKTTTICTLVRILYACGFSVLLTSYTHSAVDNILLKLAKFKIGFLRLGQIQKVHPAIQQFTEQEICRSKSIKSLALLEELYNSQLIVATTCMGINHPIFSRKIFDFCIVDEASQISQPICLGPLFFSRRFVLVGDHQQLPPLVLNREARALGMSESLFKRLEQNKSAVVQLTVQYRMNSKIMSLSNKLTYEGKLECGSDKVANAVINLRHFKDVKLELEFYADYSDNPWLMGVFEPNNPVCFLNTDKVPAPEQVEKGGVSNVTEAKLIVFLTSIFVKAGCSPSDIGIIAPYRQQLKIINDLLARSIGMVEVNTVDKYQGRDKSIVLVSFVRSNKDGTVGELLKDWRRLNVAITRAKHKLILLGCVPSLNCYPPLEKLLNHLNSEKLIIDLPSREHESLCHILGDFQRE
Assay: EMSA; no RPA; 25 mM Tris-acetate pH 7.5, 2 mM Mg acetate, 1 mM DTT, 0.1 mg/ml BSA, 1 nM DNA, 37 C 30 min; 6% PAGE in TAE on ice
Details: protein: recombinant; tags: N-terminal 6xHis, C-terminal FLAG; label: 5' 32P; single strand

B1: ssDNA 50 nt (X12-3) (ssDNA)
DNA: GACGTCATAGACGATTACATTGCTAGGACATGCTGTCTAGAGACTATCGC
Kd: ~2 nM
